Data on 20 sequences can be found in the DeepSol protein solubility set.

The data set is described as follows: soluble on expression in E. coli; label from the status in PepcDB or PDB records.
Regarding “MEVSKANGTENNVEKFDAATQEATYLDEADVDAELEAMKKRLQEMEEEANRLKEVQEQSASEVPSSEEVDRRSVYVGNVDYGSTPEELQAHFKECGTINRVTILCDKFTGHPKGFAYIEFATEEGANNAVILNESLFRGRNLKVSIKRTNVPGISTTDRGRGRGFPRGIGFRGRGGLRGGFRGRGYHGFRGRGRMTPY”, the “soluble on expression in E. coli” value is recorded as “soluble”. As to “MSLFHPEISGEWGAVKGDNIELLLNVDLSNPSPAPILLETIKVKLAGVKIGETKRANIAIFSRKVTIDSIINLDNLTTALINHIKEKEESTVSVYAKLELFDVIPVEYSRDVNFQTDLLSYLKNLRVEPKIYSIGGIPLKTPGIEGMDAKWGRVSNDSIEIIGWLKLYNPNSFPIPVTGLSADLYMNSVNIGKGVILKGTVLQPNSRGEVKVKLVLDVDNFKEAFKTHITNGERSTIRADINLVVKVGGVEYEIPIKDIETTFETDILGSIKFGEGHHHHHH”, the “soluble on expression in E. coli” value is “soluble”. With “MMGTAWPPPELADVFAQQDIWSAWYAGTPEGLTDAYLNAPNDRPAARRKGLLARLGRWFWGQPTPMGERPSKLHVPLAGAIAAVSANLLFGAPLNLTVDDAATQERLDQLADDTTYAVLREAAEMSAALGGVYLRVVWDQSIQDKPWLVAASPDIAVPEWKWGRLSAVTFWNVIREDANTVVRQLERHEPGWIRHSVWIGSANELGVQMALTDFPETAGLADLVIDGDGIPTGTPKLTAQYIPNLKPNKLWRHLPAAANLGRSDFSGVEALMDALDEAYSDWMRDLRTGKARLLVGTEVLENLGKGQGAHFDIDRELFAPLNLEPGEDKGSVIEQVQFNIRTEEHRALCADLAERIILGAGYSLQTFGVTSEGSGNPTATEIAARERQSLTTRANKTSYWRPALAHLFGVLLEIDRTVFRSQVVPQIPDVEFPDVVTPDPGETARQLNDLNTAGAISTYEKVRRLNPDWRDEQVLEEVARIKADQAEAKPQPTHPARAQEPAGQPEKSPEGSQVNEDVSEPLVAR” the entry was “not soluble”.

Consider “MGSDKIHHHHHHMVTYAGKLVLAPMVRAGELPTRLMALAHGADLVWSPEIIDKKLIQCVRKENTALQTVDYVVPSKVQTRPETLVFRTYPKLESSKLIFQIGSASPALATQAALKVINDVSGIDINAGCPKHFSIHSGMGSALLRTPDTLCLILKELVKNVGNPHSKPISVKIRLLDTKQDTLQLVKRLCATGITNLTVHCRKTEMRNREQPITDYIAEIYEICQANNVSLIVNGAIRDRSHFHDLQANHWKNTNIGGMIAECAERDPTVFDHTSKPSEDGPSWVVACREFIQWATKFDNHIGNTKYMLSRIVPGKSVFFQYFARCKSPEEVSFVLKQLNDDGSAQTDPSEYLENCRAQEKALKNANAIAKQKRKQTDHIGSDTKKQKVVPLPTDI”, for which the “soluble on expression in E. coli” value was “not soluble”. With “MWLWRKLWGIGGTMSRNTEATDDVKTWTGGPLNYKEGFFTQLATDELAKGINEEVVRAISAKRNEPEWMLEFRLNAYHAWLEMEEPHWLKAHYDKLNYQDYSYYSAPSCGNCDDNCASEPGAVQQTGANAFLSKEVEAAFEQLGVPVREGKEVAVDAIFDSVSVATTYREKLAEQGIIFCSFGEAIHDHPELVRKYLGTVVPGNDNFFAALNAAVASDGTFIYVPKGVRCPMELSTYFRINAEKTGQFERTILVADEDSYVSYIEGCSAPVRDSYQLHAAVVEVIIHKNAEVKYSTVQNWFPGDNNTGGILNFVTKRALCEGENSKMSWTQSETGSAITWKYPSCILRGDNSIGEFYSVALTSGHQQADTGTKMIHIGKNTKSTIISKGISAGHSQNSYRGLVKIMPTATNARNFTQCDSMLIGANCGAHTFPYVECRNNSAQLEHEATTSRIGEDQLFYCLQRGISEEDAISMIVNGFCKDVFSELPLEFAVEAQKLLAISLEHSVG” the entry was “soluble”. With “MGSDKIHHHHHHDTEKKVSEEGFVFTTVKENPITSVKNQNRAGTCWCYSSYSFLESELLRMGKGEYDLSEMFTVYNTYLDRADAAVRTHGDVSFSQGGSFYDALYGMETFGLVPEEEMRPGMMYADTLSNHTELSALTDAMVAAIAKGKLRKLQSDENNAMLWKKAVAAVHQIYLGVPPEKFTYKGKEYTPKSFFESTGLKASDYVSLTSYTHHPFYTQFPLEIQDNWRHGMSYNLPLDEFMEVFDNAINTGYTIAWGSDVSESGFTRDGVAVMPDDEKVQELSGSDMAHWLKLKPEEKKLNTKPQPQKWCTQAERQLAYDNYETTDDHGMQIYGIAKDQEGNEYYMVKNSWGTNSKYNGIWYASKAFVRYKTMNIVVHKDALPKAIKAKLGIK” the entry was “not soluble”; with “MYQDLIRNELNEAAETLANFLKDDANIHAIQRAAVLLADSFKAGGKVLSCGNGGSHCDAMHFAEELTGRYRENRPGYPAIAISDVSHISCVSNDFGYDYIFSRYVEAVGREGDVLLGISTSGNSGNVIKAIAAAREKGMKVITLTGKDGGKMAGTADIEIRVPHFGYADRIQEIHIKVIHILIQLIEKEMVK”, “not soluble”. The same measure for “MPAKDVQICPIAVDTTVFRSRTWDRLKFEIEYGLQRGTTANSYLISADKIALFDPPGESFTDNFVGTLIQRLDLNSLDYVILGHVNANRAHTLKLLLSLAPQATIICSNPAAQNLEKLLADAEVNNPIQVMKGNDHLDLGRGHELTFIPTPSPRYPGQLCTYDPRTEILFTDKLFGAHVCGDQVFDEGWTIYQEDRRYYFDCLLAPAAAQVSAALNKLEAYPAQTYAPSHGPLVRYGLRELTRNYQQWLEHHHHHH”: “soluble”; for “MDAEGNLFMSWRDGGTFGIARINEQQNIVTPLIEADAANRILYANGLTVDRATGMLTAAHESVKEVTFTFDPREAWYPRQRNIKYSQSDLNSIVDADRYKNFVTFCPYDGYLYTRYRDGKIAKIDPNTFEGHIIHQGPSGSQYGQAINPAKPWLLYITLHSNAPTAYRQGISVLDLRDPDGTGGFKRLNAPGGSAFRDGPIEDALFNYPKDIKFDNDGNMFVADYGNHCIRMISADNIVTTVAGQPGVAGYKDGGPVESLFKNPWGVAVNEQGDIYIADWGNARIRKLVIELEHHHHHH”: “not soluble”; for “FKRVSKAAVTASVTVIKAEDLVNTPVANPMELLQGRVPGLNIQMNNGTPGGLPSFSIRGVSDISVQSSGDGEFMMGLTPPLFVVDGIPQEDVTGYDAAGLLSGATVSPLAMIPLEDIANIQVLKDAAATSLYGSKGAYGVILIETKRGETA”: “not soluble”.

Turning to “LSLLGVGAASLYVSDSPQPKMAQSQHDTTIDLSSQKDFFEYSLSGLGEHSLEEIQENIEESISQQNSLGIDVELFQTYLAYKRALSKLEPLEDTTLSLSQLQRLNEAILNLQLEYFNDQQISQLFDEENRLRQLAIEKLVIKTYEQDSDSQQLLLNQALSEQPEYIQKSERNNALTRQLDQTELLSSQDKYLARVELVGEEGAQRLQKLDEQRATFEIELTNYLEKRADILNDEFLDSEQKQLEIANLRKQSFETTQWRRIEALERIHDS”, the “soluble on expression in E. coli” value is “not soluble”. The same measure for “MSYLDFNSMLNNLYTKFGDSSFENVFYLPEPKISKKSTRIDWININVFLKSVNRSIEHFINYLKNDRKISTTYQNNILIIQGKYRKEDINKMMLEYVNKFCKCPICSSYDTLLVKDGTIRKEKIICSKCKSTTFCS”: “not soluble”.

In the case of “MWVEKKKDKKGNITYQYRERYTDPRTGKTQKVTTTLAKNTKQAENAARRELEIKIQKILTDYEEEKRLENLIKNEGVIPNDKTLEDMIKEWFDYIQDPKSKERKKGSTLSGYSYGIDSLLNEFLVIEKDKRIQDLTFDDIQAFYDRMIFDFEYQKSYIKRFRAIIRGAFTLAYKKRYIKNLDAINLSKIVTPAKTVDDLINEQVPRYLEKAEAEQIFQVLNGYNPLYTQILELQFHTGMRFGELIALESKNFHDGFLLDIHGTYDHATRSHTRGQKVPPKTRKSFRTIELGDAAVQIIKDRMYHNHFIKNKNSDFLFVTSNDRPYDLGTINSFIASHQIEFNTSTKVSTHVFRHTHISMLAEKSIPIQVIMDRVGHEDRETTEKIYMHVTKKQKTDLVKTLNEL”, the “soluble on expression in E. coli” value was “not soluble”.

Regarding “MSLRGIRLQQPAGLASLSSVALPDPGQPAAGQIRVRLHASSLNFHDLGIVSGQMPTADGRIPMSDGAGVVEAVGEAVSDFAVGDHVVSTFFPQWLDGEPLHAGFATTPGDGVDGYARSAVVAAAQAFTHAPRGYSHAEAATLTTAGVTAWRALVVNGRIKAGDTVLVLGTGGVSIFALQFAKAMGAMVIVTSSSDQKLETARTLGADHCINYRQHTEWAAQVLEITNGRGVDHVVEVGGPGTLAQSIKAARVGGHIALIGVLTGAAGPVPTAEMMGRQQRLQGLVVGSRRHQQELVRALDGLPLRPVIDRSFALEDIAEAFALQHAGGHLGKIVLEFEGHHHHHH”, the “soluble on expression in E. coli” value was “soluble”. For the sequence “MNFLSQRYTGKSLHPDETKCYKNFTQTAQKLTHRLAESINHYVNHIDCVINTNLYNRLLAEKKESNHMIYKERETWLEAILNTLPDHVFILDESGRYIESFGGTHHSKTFNAERYIGLQLSDVLSPTKADELMGFIFDVMQDNETKVVKYNLSLHDHLLLPIEELEALENPEEMWFEAIIKPVNAPENANKLVIWSVRDITKTHLLEQRLK”, the “soluble on expression in E. coli” value was “not soluble”.

As to “MKSSEEQALAGIELDDDAVMQYLLQNPDFFIRNARLVEQMHIPHPVRGTVSLVEWQLGRQRNQIGQLEEEITLLMEQAGLNEVLFNRLLQLQGNLAAASSLQDMLNRLQRWARDFGLAGANVRLFTDRWQIGAPSDFTHLGLSRHAFEPMRIQRLGNARHYLGSLNGPELLLLLPQAKQVGSVALSLLGKEGDLGVIVFSSRDIQHYQQGMGTVMLNQLSMLLPSLLERWIEPVLEHHHHHH”, the “soluble on expression in E. coli” value is listed as “not soluble”. The same measure for “MSLHSPGKAFRAALTKENPLQIVGTINANHALLAQRAGYQAIYLSGGGVAAGSLGLPDLGISTLDDVLTDIRRITDVCSLPLLVDADIGFGSSAFNVARTVKSMIKAGAAGLHIEDQVGAKRCGHRPNKAIVSKEEMVDRIRAAVDAKTDPDFVIMARTDALAVEGLDAAIERAQAYVEAGAEMLFPEAITELAMYRQFADAVQVPILANITEFGATPLFTTDELRSAHVAMALYPLSAFRAMNRAAEHVYNVLRQEGTQKSVIDTMQTRNELYESINYYQYEEKLDNLFARSQVK”: “soluble”; for “MGEAETPSFEMTWSSTTSSGYCSQEDSDSELEQYFTARTSLVRRPRRDQDEAVERETPDLSQAETEQKIKDYNGQINSNLFMSLNKDGSYTGFIKVQLKLVRPVSVPSSKKPPSLQDARRGTGRSTAVKRRTSFYLPKDAIKHLHVLSRTRAREVIEALLRKFMVVDDPRKFALFERTERHGQVYLRKLSDDEQPLKLRLLAGPSEKALSFVLKENDSGEVNWDAFSMPELHNFLRILQREEEEHLRQILQKYSRCRQKIQEALHACPLG”: “soluble”. Consider “LEIPTSTVVKETLTQLSAHRALLTSNETLRLPVPTHKNHQLCIGEIFQGLDILKNQTVRGGTVERLFQNLSLIKKYIDRQKEKCGEERRRTRQFLDYLQEFLGVLSTEWAIEG”, for which the “soluble on expression in E. coli” value is recorded as “soluble”. With “MNNASGGTHSKGTATTGGTTTQAAKTNLTTTAAKGRTATPSLDEETRKRLMVEGKCFHCFKPGHISPNYLEKQIKQLKVLEQPVPEEQGVSENN”, the “soluble on expression in E. coli” value is listed as “not soluble”.
